Reference: the supplement of paper PMC9112550, “Optimization of the antimicrobial peptide Bac7 by deep mutational scanning” (BMC Biology, 2022)

tested on: Escherichia coli TOP10; assay: shrunken log2 fold change of peptide-encoding DNA abundance (4.5 h post-induction vs induction); higher = less antimicrobial activity (less host growth inhibition); details: time post-induction: 4.5 h; library: site-saturation at positions 5, 18, 19, 20
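Further: peptides expressed intracellularly from a pBAD plasmid library in pooled LB shake-flask culture, induced with 0.3% L-arabinose, DNA abundance read by NGS, three biological replicates, DESeq2 with apeglm shrinkage.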

Row | Sequence | shrunken log2 fold change
1 | RRIRSRPPRLPRPRPRPFREPRP | 0.0536
2 | RRIRWRPPRLPRPRPRPHWPPRP | 0.248
3 | RRIRARPPRLPRPRPRPRSEPRP | 0.42
4 | RRIRNRPPRLPRPRPRPSWDPRP | 0.039
5 | RRIRTRPPRLPRPRPRPKFKPRP | -0.225
6 | RRIRTRPPRLPRPRPRPALLPRP | 0.226
7 | RRIRGRPPRLPRPRPRPSRFPRP | 0.0371
8 | RRIRLRPPRLPRPRPRPKHCPRP | -0.207
9 | RRIRHRPPRLPRPRPRPRSSPRP | -0.00605
10 | RRIRLRPPRLPRPRPRPGTAPRP | 0.362
11 | RRIRGRPPRLPRPRPRPEERPRP | 0.55
12 | RRIRRRPPRLPRPRPRPFHDPRP | -0.307
13 | RRIRERPPRLPRPRPRPCHIPRP | -0.439
14 | RRIRRRPPRLPRPRPRPRTIPRP | 0.134
15 | RRIRGRPPRLPRPRPRPHQMPRP | 0.532
16 | RRIRSRPPRLPRPRPRPRLYPRP | 0.114
17 | RRIRERPPRLPRPRPRPMIFPRP | -0.223
18 | RRIRVRPPRLPRPRPRPNHYPRP | -0.501
19 | RRIRMRPPRLPRPRPRPCQSPRP | 0.288
20 | RRIRNRPPRLPRPRPRPDGVPRP | 0.221
21 | RRIRGRPPRLPRPRPRPEIFPRP | 1.02
22 | RRIRGRPPRLPRPRPRPLFKPRP | 0.337
23 | RRIRIRPPRLPRPRPRPGICPRP | -0.0709
24 | RRIRRRPPRLPRPRPRPGNRPRP | -0.151
25 | RRIRARPPRLPRPRPRPENIPRP | -0.251

Row | Sequence | shrunken log2 fold change
26 | RRIRPRPPRLPRPRPRPFRNPRP | -0.0931
27 | RRIRERPPRLPRPRPRPWREPRP | 0.127
28 | RRIRTRPPRLPRPRPRPTHTPRP | 0.0425
29 | RRIRWRPPRLPRPRPRPVLPPRP | -0.0604
30 | RRIRGRPPRLPRPRPRPSWYPRP | -0.102
31 | RRIRQRPPRLPRPRPRPDRLPRP | -0.0692
32 | RRIRCRPPRLPRPRPRPCICPRP | -0.105
33 | RRIRSRPPRLPRPRPRPYEFPRP | -0.438
34 | RRIRHRPPRLPRPRPRPITPPRP | -0.538
35 | RRIRTRPPRLPRPRPRPDHPPRP | -0.224
36 | RRIRDRPPRLPRPRPRPNRWPRP | 0.0049
37 | RRIRWRPPRLPRPRPRPCAYPRP | -0.129
38 | RRIRPRPPRLPRPRPRPDETPRP | -0.088
39 | RRIRRRPPRLPRPRPRPMFGPRP | -0.0512
40 | RRIRWRPPRLPRPRPRPYDPPRP | -0.126
41 | RRIRMRPPRLPRPRPRPFLNPRP | -0.247
42 | RRIRNRPPRLPRPRPRPVQPPRP | 0.0494
43 | RRIRSRPPRLPRPRPRPFLKPRP | -0.632
44 | RRIRTRPPRLPRPRPRPRVSPRP | 0.0622
45 | RRIRTRPPRLPRPRPRPPNCPRP | 0.0905
46 | RRIRIRPPRLPRPRPRPAHNPRP | -0.271
47 | RRIRLRPPRLPRPRPRPDRGPRP | 0.0151
48 | RRIRTRPPRLPRPRPRPVYCPRP | -0.301
49 | RRIRMRPPRLPRPRPRPFKRPRP | 0.0293
50 | RRIRVRPPRLPRPRPRPQANPRP | 0.0748

Row | Sequence | shrunken log2 fold change
51 | RRIRTRPPRLPRPRPRPTKYPRP | -0.612
52 | RRIRNRPPRLPRPRPRPECRPRP | 0.263
53 | RRIRDRPPRLPRPRPRPPYYPRP | -0.474
54 | RRIRWRPPRLPRPRPRPYDTPRP | -0.495
55 | RRIRLRPPRLPRPRPRPAFPPRP | 0.0371
56 | RRIRFRPPRLPRPRPRPPMYPRP | -0.395
57 | RRIRNRPPRLPRPRPRPLYTPRP | -0.269
58 | RRIRPRPPRLPRPRPRPRRLPRP | 0.279
59 | RRIRYRPPRLPRPRPRPLETPRP | -0.0196
60 | RRIRGRPPRLPRPRPRPDIKPRP | 0.547
61 | RRIRLRPPRLPRPRPRPFEQPRP | 0.305
62 | RRIRARPPRLPRPRPRPYEAPRP | -0.222
63 | RRIRSRPPRLPRPRPRPELGPRP | 0.547
64 | RRIRDRPPRLPRPRPRPENWPRP | 0.695
65 | RRIRGRPPRLPRPRPRPMEPPRP | 0.245
66 | RRIRFRPPRLPRPRPRPDGCPRP | -0.0502
67 | RRIRLRPPRLPRPRPRPIGLPRP | 0.00285
68 | RRIRLRPPRLPRPRPRPHAVPRP | 0.0578
69 | RRIRPRPPRLPRPRPRPITKPRP | -0.0256
70 | RRIRYRPPRLPRPRPRPNVHPRP | -0.745
71 | RRIRCRPPRLPRPRPRPKQSPRP | 0.107
72 | RRIRARPPRLPRPRPRPADDPRP | 0.409
73 | RRIRDRPPRLPRPRPRPYCSPRP | -0.335
74 | RRIRARPPRLPRPRPRPKEFPRP | 0.355
75 | RRIRFRPPRLPRPRPRPNDIPRP | -0.169

Row | Sequence | shrunken log2 fold change
76 | RRIRNRPPRLPRPRPRPSILPRP | -0.151
77 | RRIRHRPPRLPRPRPRPVGVPRP | -0.00247
78 | RRIRQRPPRLPRPRPRPDTRPRP | 0.00157
79 | RRIRRRPPRLPRPRPRPADPPRP | 0.403
80 | RRIRGRPPRLPRPRPRPFKQPRP | 0.13
81 | RRIRCRPPRLPRPRPRPVAYPRP | -0.232
82 | RRIRKRPPRLPRPRPRPNGHPRP | -0.0369
83 | RRIRRRPPRLPRPRPRPNMEPRP | 0.0673
84 | RRIRMRPPRLPRPRPRPCRPPRP | 0.00908
85 | RRIRSRPPRLPRPRPRPDNFPRP | -0.299
86 | RRIRNRPPRLPRPRPRPPIYPRP | -0.202
87 | RRIRTRPPRLPRPRPRPVYTPRP | -1.09
88 | RRIRPRPPRLPRPRPRPGAYPRP | 0.0679
89 | RRIRNRPPRLPRPRPRPARIPRP | -0.0767
90 | RRIRWRPPRLPRPRPRPMRMPRP | 0.329
91 | RRIRLRPPRLPRPRPRPPVGPRP | 1.42
92 | RRIRCRPPRLPRPRPRPNGIPRP | -0.117
93 | RRIRCRPPRLPRPRPRPVQGPRP | -0.0182
94 | RRIRWRPPRLPRPRPRPIRMPRP | 0.098
95 | RRIRLRPPRLPRPRPRPLMAPRP | -0.246
96 | RRIRPRPPRLPRPRPRPGPRPRP | 0.677
97 | RRIRRRPPRLPRPRPRPMLKPRP | 0.0333
98 | RRIRDRPPRLPRPRPRPMGEPRP | -6.53e-05
99 | RRIRTRPPRLPRPRPRPSGAPRP | 0.251
100 | RRIRGRPPRLPRPRPRPFCLPRP | 0.229

Row | Sequence | shrunken log2 fold change
101 | RRIRNRPPRLPRPRPRPMAAPRP | 0.582
102 | RRIRRRPPRLPRPRPRPWELPRP | 0.0522
103 | RRIRHRPPRLPRPRPRPEHFPRP | -0.00153
104 | RRIRTRPPRLPRPRPRPRVGPRP | 0.364
105 | RRIRRRPPRLPRPRPRPVGVPRP | 0.705
106 | RRIRRRPPRLPRPRPRPLDDPRP | 0.0512
107 | RRIRTRPPRLPRPRPRPRVLPRP | 0.242
108 | RRIRDRPPRLPRPRPRPRPNPRP | 0.323
109 | RRIRERPPRLPRPRPRPTKMPRP | -0.22
110 | RRIRMRPPRLPRPRPRPFRFPRP | 0.089
111 | RRIRARPPRLPRPRPRPLDCPRP | 0.49
112 | RRIRERPPRLPRPRPRPGWCPRP | 0.00111
113 | RRIRLRPPRLPRPRPRPERIPRP | 0.0484
114 | RRIRMRPPRLPRPRPRPIPAPRP | 0.788
115 | RRIRPRPPRLPRPRPRPEWAPRP | 2.06
116 | RRIRTRPPRLPRPRPRPTDCPRP | 0.0577
117 | RRIRGRPPRLPRPRPRPDIDPRP | 2.17
118 | RRIRWRPPRLPRPRPRPQIHPRP | -0.681
119 | RRIRRRPPRLPRPRPRPDHTPRP | -0.447
120 | RRIRRRPPRLPRPRPRPKRTPRP | 0.759
121 | RRIRRRPPRLPRPRPRPHRKPRP | -0.247
122 | RRIRMRPPRLPRPRPRPTQAPRP | 0.0839
123 | RRIRKRPPRLPRPRPRPYLEPRP | 0.0252
124 | RRIRWRPPRLPRPRPRPQQMPRP | -0.128
125 | RRIRERPPRLPRPRPRPPRGPRP | 0.519

Row | Sequence | shrunken log2 fold change
126 | RRIRQRPPRLPRPRPRPIECPRP | -0.0217
127 | RRIRRRPPRLPRPRPRPWHGPRP | -0.202
128 | RRIRMRPPRLPRPRPRPVKGPRP | 0.0743
129 | RRIRFRPPRLPRPRPRPIFEPRP | -0.0328
130 | RRIRDRPPRLPRPRPRPTWHPRP | 0.376
131 | RRIRGRPPRLPRPRPRPPFDPRP | 0.835
132 | RRIRERPPRLPRPRPRPCHLPRP | -0.176
133 | RRIRERPPRLPRPRPRPCDIPRP | -0.329
134 | RRIRIRPPRLPRPRPRPGWIPRP | -0.14
135 | RRIRERPPRLPRPRPRPCCNPRP | -0.0562
136 | RRIRYRPPRLPRPRPRPRAHPRP | -0.121
137 | RRIRPRPPRLPRPRPRPHHFPRP | -0.0294
138 | RRIRPRPPRLPRPRPRPGGCPRP | 0.295
139 | RRIRSRPPRLPRPRPRPTNHPRP | -0.344
140 | RRIRYRPPRLPRPRPRPDDYPRP | 0.0219
141 | RRIRWRPPRLPRPRPRPFRMPRP | -0.122
142 | RRIRRRPPRLPRPRPRPGDVPRP | 0.249
143 | RRIRDRPPRLPRPRPRPASQPRP | 0.0836
144 | RRIRVRPPRLPRPRPRPFRDPRP | -0.0207
145 | RRIRNRPPRLPRPRPRPLFVPRP | -0.495
146 | RRIRCRPPRLPRPRPRPWMYPRP | -0.0169
147 | RRIRYRPPRLPRPRPRPPGIPRP | 0.0348
148 | RRIRMRPPRLPRPRPRPREDPRP | 0.0544
149 | RRIRWRPPRLPRPRPRPYDLPRP | -0.021
150 | RRIRLRPPRLPRPRPRPELIPRP | -0.0413
